The supplement of paper PMC10567573

B1: KCNAB2 (parent)
chain: YVDVVFANRPDPNTPMEETVRAMT
B2: PKD2L1 (parent)
chain: TLARCAKDILGFAVMFFIVFFAYA

Variants of: B1
Assay: protein stability index of a GFP-peptide fusion (GPS, HEK-293T) (PSI 1-6); higher = more stable
Settings: c terminus: a fixed tail appended
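Note: lentivirally expressed fusions sorted by FACS into six bins by GFP to DsRed ratio, PSI derived from sequencing read proportions per bin multiplied by bin number.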

Protein stability index: each site, then its substitutions
M23: W 2.06 | S 1.58 | L 2.57 | C 2.04 | K 1.82 | F 2.03 | G 1.56 | N 1.8 | V 1.78 | A 2.16 | Y 2.13 | Q 1.41 | P 2.14 | R 2.81 | D 1.61 | I 1.82 | E 1.86 | H 1.66
P15: R 2.52 | E 1.73 | I 1.9 | F 2.47 | W 1.78 | T 1.94 | H 1.35 | K 2.72 | S 2.69 | N 1.97 | Q 2.1 | M 2.28 | A 2.34 | L 2.44 | D 1.49 | G 1.91 | V 1.87 | Y 2.21 | C 2.67
T24: I 1.78 | M 2.18 | W 2.72 | Y 2.46 | D 1.46 | G 1.35 | H 1.74 | S 1.88 | V 1.47 | N 1.5 | K 1.82 | P 2.24 | L 1.8 | R 1.78 | C 1.98 | Q 2.09 | E 1.86 | F 3.03
M16: S 2.42 | G 1.95 | F 1.77 | Y 2.18 | E 2.02 | P 1.91 | N 2.2 | V 1.65 | R 2.54 | Q 2.27 | H 1.93 | K 1.8 | L 1.86 | I 1.64 | W 2.2 | D 1.77 | T 1.33 | C 1.82 | A 1.8
T14: H 2.77 | D 1.69 | Q 2.12 | E 1.7 | I 3.12 | Y 2.4 | P 2.51 | F 2.32 | N 3.02 | W 1.54 | R 2.23 | M 2.65 | G 2.04 | A 1.84 | C 1.99 | S 1.93 | L 2.37 | V 1.56 | K 2.2
R21: D 1.56 | K 2.35 | S 1.77 | A 1.84 | Y 1.87 | W 2.27 | V 1.58 | G 2.37 | E 2.27 | N 2.33 | L 2.64 | P 2.1 | I 2.15 | H 2.22 | Q 2.18 | T 1.96 | M 1.56 | C 1.5 | F 2.78
E17: V 2.06 | N 2.76 | R 2.29 | S 1.2 | I 1.58 | D 2.12 | G 2.72 | H 2.85 | Y 2.5 | L 1.64 | W 3.15 | A 1.86 | T 2.84 | C 1.62 | P 2.17 | K 2.62 | M 2.65 | Q 2.14
N13: S 2.34 | M 1.98 | D 2.29 | R 1.98 | A 2 | G 2.14 | V 2.44 | T 1.3 | L 1.96 | C 1.89 | Y 2.31 | E 2.5 | Q 2.11 | H 2.15 | F 2.09 | W 2.88 | K 2.18 | I 2.76
A22: V 2.29 | Y 1.73 | W 2.49 | R 1.89 | E 1.6 | L 1.98 | K 2.08 | T 1.33 | Q 1.85 | I 1.72 | P 1.69 | H 2.27 | F 2.28 | M 2.32 | N 2.13 | S 1.76 | C 2.26 | G 1.74 | D 2.67
E18: H 2.97 | D 2.04 | A 2.67 | T 1.64 | M 3.06 | Q 2.09 | V 2.43 | K 2.75 | I 2.98 | F 2.1 | G 1.75 | N 1.83 | C 2.02 | L 2.56 | P 2.27 | Y 2.64 | W 1.85 | S 1.99 | R 2.1
P12: H 1.37 | C 2.08 | N 1.28 | S 1.66 | E 1.65 | Y 2.72 | V 2.72 | T 1.56 | M 2.03 | L 2.51 | K 2.16 | G 2.31 | F 2.02 | I 1.83 | A 2.27 | R 1.46 | W 2.04 | Q 2.43 | D 1.65
V20: I 1.87 | K 1.59 | R 1.82 | M 1.71 | W 2.74 | L 2.58 | P 1.86 | G 2.07 | F 1.64 | Q 1.82 | N 1.92 | S 2.06 | A 1.82 | D 1.76 | Y 1.8 | T 1.81 | C 1.99 | E 1.76 | H 1.81
T19: V 2.01 | R 1.66 | E 1.71 | Y 1.62 | Q 1.9 | A 1.86 | F 1.66 | K 2.41 | C 1.46 | M 1.79 | D 2.07 | P 1.61 | N 2 | S 1.93 | L 1.89 | I 1.85 | H 2.1 | G 1.9 | W 1.85
D11: T 2.76 | Y 2.42 | Q 2.5 | W 1.94 | R 1.47 | S 1.39 | V 2.53

Variants of: B2
Assay: as above
Settings: c terminus: a fixed tail appended

Protein stability index: each site, then its substitutions
R4: Q 2.37 | W 3.31 | G 3.84 | Y 3.28 | K 2.6 | L 3.07 | V 4.36 | F 2.68 | A 2.72 | P 2.65 | I 2.64 | C 2.28 | N 2.79
L2: W 1.67 | Q 3.4 | T 4.12 | D 3.71 | N 2.5 | C 3.44 | Y 2.51 | R 3.68 | M 3.8 | E 2.8 | H 2.35 | V 1.24 | K 1.84 | S 2.73 | P 3.29 | A 3.81 | G 3.03
A3: H 2.4 | P 2.64 | N 1.53 | K 2.74 | L 1.75 | R 1.81 | Q 2.7 | V 1.94 | T 3.62 | W 1.87 | C 2.83 | I 4.3 | Y 4.87 | D 2.56 | G 1.71 | E 3.11
C5: H 1.6 | D 2.61 | P 1.71 | I 3 | T 4.06 | G 2.59 | L 2.78 | E 2.09 | A 2.49 | M 3.55 | F 4.37 | S 2.27 | V 2.5 | K 2.48 | R 2.01 | N 1.9 | Q 2.29 | Y 2.22
T1: H 2.29 | W 1.62 | P 2.03 | I 2 | C 2.98 | L 2 | R 1.72 | A 2.36 | S 2.19 | V 2.81 | K 3.97 | F 3.18 | M 4.2 | D 2.96 | N 2.67
A6: C 2.87 | E 3.58 | G 1.59 | H 2.59 | F 2.64
